Assay results published in patent publication US20230416410A1.
Substitutions are numbered along the chain they refer to.

B1: bIgG3a_R433H mutant mAb (antibody, part only; not given: variable domains, not shown: another chain or arm of the molecule)
constant: ASTTAPKVYPLASSCGDTSSSTVTLGCLVSSYMPEPVTVTWNSGALKSGVHTFPAVRQSSGLYSLSSMVTVPASSSETQTFTCNVAHPASSTKVDKAVTARRPVPTTPKTTIPPGKPTTPKSEVEKTPCQCSKCPEPLGGLSVFIFPPKPKDTLTISGTPEVTCVVVDVGQDDPEVQFSWFVDDVEVHTARTKPREEQFNSTYRVVSALRIQHQDWLQGKEFKCKVNNKGLPAPIVRTISRTKGQAREPQVYVLAPPREELSKSTLSLTCLITGFYPEEIDVEWQRNGQPESEDKYHTTAPQLDADGSYFLYSKLRVNKSSWQEGDHYTCAVMHEALHNHYKEKSISRSPGK
B2: bIgG3a wildtype mAb (antibody, part only; not given: variable domains, not shown: another chain or arm of the molecule)
constant: B1 constant with H338R
B3: bIgG1a mAb (antibody, part only; not given: variable domains, not shown: another chain or arm of the molecule)
constant: ASTTAPKVYPLSSCCGDKSSSTVTLGCLVSSYMPEPVTVTWNSGALKSGVHTFPAVLQSSGLYSLSSMVTVPGSTSGTQTFTCNVAHPASSTKVDKAVDPRCKTTCDCCPPPELPGGPSVFIFPPKPKDTLTISGTPEVTCVVVDVGHDDPEVKFSWFVDDVEVNTATTKPREEQFNSTYRVVSALRIQHQDWTGGKEFKCKVHNEGLPAPIVRTISRTKGPAREPQVYVLAPPQEELSKSTVSLTCMVTSFYPDYIAVEWQRNGQPESEDKYGTTPPQLDADGSYFLYSRLRVDRNSWQEGDTYTCVVMHEALHNHYTQKSTSKSAGK
B4: bIgG2a_L432A mAb (antibody, part only; not given: variable domains, not shown: another chain or arm of the molecule)
constant: ASTTAPKVYPLTSCCGDKSSSRVTLGCLVSSYMPEPVTVTWNSGALKSGVHTFPAVLQSSGLYSLSSMVTVPGSSSGQTFTCNVAHPASSTKVDKAVGVSSDCSKPNNQHCVREPSVFIFPPKPKDTLMITGTPEVTCVVVNVGHDNPEVQFSWFVDDVEVHTARTKPREEQFNSTYRVVSALPIQHQDWTGGKEFKCKVNIKGLSASIVRIISRSKGPAREPQVYVLDPPKEELSKSTVSVTCMVIGFYPEDVDVEWQRDRQTESEDKYRTTPPQLDADRSYFLYSKLRVDRNSWQRGDTYTCVVMHEAAHNHYMQKSTSKSAGK
B5: bIgG2a_L432A_N434A mAb (antibody, part only; not given: variable domains, not shown: another chain or arm of the molecule)
constant: B4 constant with N313A
B6: bIgG2a_L432A_M437A mAb (antibody, part only; not given: variable domains, not shown: another chain or arm of the molecule)
constant: B4 constant with M316A
B7: bIgG2a_L432A_N434A_M437A mAb (antibody, part only; not given: variable domains, not shown: another chain or arm of the molecule)
constant: B4 constant with N313A, M316A
B8: bIgG2a_N434A mAb (antibody, part only; not given: variable domains, not shown: another chain or arm of the molecule)
constant: B4 constant with A311L, N313A
B9: bIgG2a_M437A mAb (antibody, part only; not given: variable domains, not shown: another chain or arm of the molecule)
constant: B4 constant with A311L, M316A
B10: bIgG2a_N434A_M437A mAb (antibody, part only; not given: variable domains, not shown: another chain or arm of the molecule)
constant: B4 constant with A311L, N313A, M316A

The binders below were run against recombinant bovine FcRn (bovine) (UniProt F6R592) (assay: SPR Biacore, bFcRn, pH 6; against bIgG3a wildtype mAb).
Sequence of recombinant bovine FcRn (bovine) (chain, as listed by the source, chain 1 of 2): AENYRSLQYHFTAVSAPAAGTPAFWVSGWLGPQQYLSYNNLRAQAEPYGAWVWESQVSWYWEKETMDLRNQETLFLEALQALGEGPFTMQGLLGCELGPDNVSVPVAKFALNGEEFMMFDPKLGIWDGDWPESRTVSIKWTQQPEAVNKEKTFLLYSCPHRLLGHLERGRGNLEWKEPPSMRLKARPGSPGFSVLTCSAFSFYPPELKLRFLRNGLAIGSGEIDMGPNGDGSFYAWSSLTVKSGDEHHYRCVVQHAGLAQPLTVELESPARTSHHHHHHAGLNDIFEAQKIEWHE
Sequence of recombinant bovine FcRn (bovine) (P01888 21-118, chain 2 of 2): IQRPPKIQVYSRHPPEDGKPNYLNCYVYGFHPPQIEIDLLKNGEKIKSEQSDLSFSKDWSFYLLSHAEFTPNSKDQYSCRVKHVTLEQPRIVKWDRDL

Row | Binder | fold higher affinity than bIgG3a wildtype [fold]
1 | B1 | 5

Each binder was assayed against recombinant bovine FcRn (bovine) (UniProt F6R592) (assay: SPR Biacore, bFcRn on SA sensor, pH 6, 25 C).

Row | Binder | Kd [nM]
2 | B2 | 30.2
3 | B1 | 9.14
4 | B3 | 31.4
5 | B4 | 0.579
6 | B5 | 1.7
7 | B6 | 3.03
8 | B7 | 6.96
9 | B8 | 1.04
10 | B9 | 0.59
11 | B10 | 2.31

What follows are binders tested against recombinant bovine Fcg2R (bovine) (assay: SPR Biacore, bFcg2R amine-coupled on CM5; against bIgG2a wildtype mAb).
Sequence of recombinant bovine Fcg2R (bovine) (main, as listed by the source): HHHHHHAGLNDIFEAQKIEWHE

Row | Binder | Fcg2R KD reduction from WT [fold]
12 | B5 | 4

What follows are binders tested against recombinant bovine Fcg2R (bovine) (assay: SPR Biacore, bFcg2R amine-coupled on CM5, pH 7.4, 15 C).

Row | Binder | Kd [nM]
13 | B5 | 59.3
